Measured values published in patent publication US20250197501A1 (DEVELOPMENT CENTER FOR BIOTECHNOLOGY, published 2025).
Substitutions are numbered along the chain they refer to. Like-named read-outs stand apart in the source and are kept apart here.

Assays:
[1] = target: T1, human B7-H3 on the surface of human cancer cells (human, UniProt Q5ZPR3 29-534); experiment: cell-based or functional assay
T1 sequence: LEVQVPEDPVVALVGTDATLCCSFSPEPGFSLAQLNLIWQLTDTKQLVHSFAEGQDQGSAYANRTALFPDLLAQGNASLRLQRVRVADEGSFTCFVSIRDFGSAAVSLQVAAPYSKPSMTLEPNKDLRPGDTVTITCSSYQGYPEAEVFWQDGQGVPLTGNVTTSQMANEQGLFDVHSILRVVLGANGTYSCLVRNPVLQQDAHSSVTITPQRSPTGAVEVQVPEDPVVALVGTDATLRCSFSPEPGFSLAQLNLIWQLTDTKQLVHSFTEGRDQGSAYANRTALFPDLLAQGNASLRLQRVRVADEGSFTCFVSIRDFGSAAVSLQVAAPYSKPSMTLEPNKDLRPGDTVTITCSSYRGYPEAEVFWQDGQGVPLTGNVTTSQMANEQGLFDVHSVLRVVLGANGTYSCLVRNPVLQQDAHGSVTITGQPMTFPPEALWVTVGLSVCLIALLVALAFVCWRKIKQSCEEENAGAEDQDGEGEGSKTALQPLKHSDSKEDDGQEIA

[2] = target: T2, recombinant human B7-H3-mFc protein (human, UniProt Q5ZPR3 29-466); experiment: SPR; MMAE conjugate, not parental mAb
T2 construct: also called B7-H3 protein; not shown: mouse Fc domain
T2 sequence: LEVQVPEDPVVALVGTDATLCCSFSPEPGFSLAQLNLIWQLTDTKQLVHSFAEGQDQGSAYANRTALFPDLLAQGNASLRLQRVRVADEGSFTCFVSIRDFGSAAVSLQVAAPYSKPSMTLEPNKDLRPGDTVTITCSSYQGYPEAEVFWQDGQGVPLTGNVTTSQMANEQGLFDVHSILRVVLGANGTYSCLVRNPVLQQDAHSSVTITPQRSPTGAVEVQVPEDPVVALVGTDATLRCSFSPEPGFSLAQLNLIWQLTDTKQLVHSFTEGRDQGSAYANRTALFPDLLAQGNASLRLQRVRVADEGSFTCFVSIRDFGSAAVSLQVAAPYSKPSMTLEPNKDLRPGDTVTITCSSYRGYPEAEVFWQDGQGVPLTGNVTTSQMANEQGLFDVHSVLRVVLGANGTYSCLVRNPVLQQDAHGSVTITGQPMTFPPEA
Method: The binding kinetics of the present antibodies against human B7-H3 were determined by Biacore™ assay. Carboxymethylated dextran biosensor chips (CM5) were activated according to the supplier's instructions. Anti-human IgG (Fc) was diluted with immobilization buffer before injection at a flow rate of 10 μL/minute to achieve approximately 10,000 response units (RU) of coupled protein followed by the injection of 1 M ethanolamine to block unreacted groups. Human anti-B7-H3 antibodies were captured on anti-human IgG chip. For kinetics measurements, two-fold serial dilutions of human B7-H3-mFc protein (from 40 nM to 0.3125 nM) were injected in HBS-EP⁺ Biacore™ running buffer provided by the manufacturer at a flow rate of 30 μL/min.

[3] = target: T1, human B7-H3 on the surface of human …; experiment: cell-based or functional assay; remark: listed apart in the source
[4] = target: T3, recombinant rat B7-H3-mFc protein (rat, UniProt Q7TPB4 29-244); experiment: ELISA, plate coated with rat B7-H3 mFc
T3 construct: also called rat B7-H3 mFc chimeric protein; rat B7-H3 Fc chimeric protein; not shown: mouse Fc domain
T3 sequence: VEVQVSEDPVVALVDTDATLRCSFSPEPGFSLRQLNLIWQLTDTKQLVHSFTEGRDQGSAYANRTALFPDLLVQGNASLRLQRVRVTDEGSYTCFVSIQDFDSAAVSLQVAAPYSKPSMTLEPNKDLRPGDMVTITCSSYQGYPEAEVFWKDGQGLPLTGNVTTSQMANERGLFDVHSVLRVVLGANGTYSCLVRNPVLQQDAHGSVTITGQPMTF
Method: (§1) The binding affinity of full-length antibodies to human, monkey, mouse and rat B7-H3 were evaluated by ELISA. In brief, 96-well plate was coated with B7-H3 proteins (i.e., human B7-H3-mFc protein, cynomolgus monkey B7-H3 protein or rat B7-H3 Fc chimeric protein) in coating buffer and incubated overnight at 4° C. After washing with PBS for 3 times, the 96-well plate was inverted and tapped on clean absorbent papers to remove excess liquid. The blocking buffer (PBS containing 1% bovine serum albumin (BSA) was added to the wells, followed by incubating the plate at 37° C. for 1 hour with gentle continual shaking. After washing with PBS for 3 times, serial dilutions of anti-B7-H3 antibody (in PBS containing 1% BSA) were added into the wells. The plate was incubated at 37° C. for 1 hour with gentle continual shaking. After washing with PBS for 3 times, the secondary antibody (peroxidase-conjugated AffiniPure™ F(ab′)₂ fragment goat anti-human IgG (H+L)) was added into the wells and then incubated at 37° C. for 1 hour with gentle continual shaking. The plate was washed with PBS for 3 times, and the TMB substrate was added into each well and incubated at room temperature for 5 minutes, avoiding from light. 1 N HCl stop solution was added into each well and the absorbance was measured at 450/650 nm. The binding affinity value (EC50) of antibodies was determined by software.

[5] = target: T2, recombinant human B7-H3-mFc protein; experiment: ELISA, plate coated with human B7-H3-mFc
Method: as §1

[6] = target: T4, recombinant mouse B7-H3-mFc protein (mouse, UniProt Q8VE98 29-244); experiment: ELISA, plate coated with mouse B7-H3 mFc
T4 construct: not shown: mouse Fc domain
T4 sequence: T3 sequence with R33A, A62S, D131N, L156V, M214L
Method: as §1

[7] = target: T2, recombinant human B7-H3-mFc protein; experiment: SPR (Biacore), antibody captured on anti-human IgG chip, B7-H3 protein injected
[8] = target: T3, recombinant rat B7-H3-mFc protein; experiment: as above
[9] = target: T4, recombinant mouse B7-H3-mFc protein; experiment: as above
B7-H1 = experiment: ELISA on the named B7 family protein (Example 1.1), A450 readout; antibody concentration not given
B7-H2 = target: T5, B7-H2; experiment: as above
T5 chain: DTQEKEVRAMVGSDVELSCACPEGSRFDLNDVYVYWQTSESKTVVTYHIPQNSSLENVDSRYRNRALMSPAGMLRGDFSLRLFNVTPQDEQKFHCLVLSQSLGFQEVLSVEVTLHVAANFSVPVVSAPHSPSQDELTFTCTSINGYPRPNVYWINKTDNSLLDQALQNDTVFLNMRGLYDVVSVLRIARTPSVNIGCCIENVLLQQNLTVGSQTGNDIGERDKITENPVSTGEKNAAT

B7-H4 = target: T6, B7-H4; experiment: as above
T6 construct: Member of the group m9
T6 chain: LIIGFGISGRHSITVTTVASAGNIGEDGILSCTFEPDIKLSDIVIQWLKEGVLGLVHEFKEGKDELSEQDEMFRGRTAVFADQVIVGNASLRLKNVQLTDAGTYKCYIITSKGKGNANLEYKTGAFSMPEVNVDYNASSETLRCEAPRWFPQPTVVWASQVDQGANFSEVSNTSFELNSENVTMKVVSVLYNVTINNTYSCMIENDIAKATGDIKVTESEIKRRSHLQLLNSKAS

B7-H6 = target: T7, B7-H6; experiment: as above
T7 chain: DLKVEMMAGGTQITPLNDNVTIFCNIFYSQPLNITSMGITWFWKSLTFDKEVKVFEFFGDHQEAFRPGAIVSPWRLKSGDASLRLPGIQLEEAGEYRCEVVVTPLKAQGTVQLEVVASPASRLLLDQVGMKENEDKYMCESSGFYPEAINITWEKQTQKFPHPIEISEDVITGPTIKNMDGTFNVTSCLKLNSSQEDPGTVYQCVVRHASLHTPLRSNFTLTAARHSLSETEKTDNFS

B7-H7 = target: T8, B7-H7; experiment: as above
T8 chain: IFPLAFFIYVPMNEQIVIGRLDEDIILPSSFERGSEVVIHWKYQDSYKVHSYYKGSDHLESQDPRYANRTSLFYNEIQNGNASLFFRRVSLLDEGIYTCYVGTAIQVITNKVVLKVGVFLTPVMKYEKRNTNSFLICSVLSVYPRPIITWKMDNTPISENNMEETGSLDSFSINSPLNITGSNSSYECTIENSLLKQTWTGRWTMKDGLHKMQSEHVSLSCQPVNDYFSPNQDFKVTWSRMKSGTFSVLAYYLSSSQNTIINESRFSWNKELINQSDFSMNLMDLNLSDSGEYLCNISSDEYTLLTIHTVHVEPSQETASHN

[10] = target: T9, recombinant cynomolgus monkey B7-H3 protein (cynomolgus monkey, UniProt Q7TPB4 26-248 (rat entry)); experiment: ELISA, plate coated with cynomolgus monkey B7-H3
T9 chain: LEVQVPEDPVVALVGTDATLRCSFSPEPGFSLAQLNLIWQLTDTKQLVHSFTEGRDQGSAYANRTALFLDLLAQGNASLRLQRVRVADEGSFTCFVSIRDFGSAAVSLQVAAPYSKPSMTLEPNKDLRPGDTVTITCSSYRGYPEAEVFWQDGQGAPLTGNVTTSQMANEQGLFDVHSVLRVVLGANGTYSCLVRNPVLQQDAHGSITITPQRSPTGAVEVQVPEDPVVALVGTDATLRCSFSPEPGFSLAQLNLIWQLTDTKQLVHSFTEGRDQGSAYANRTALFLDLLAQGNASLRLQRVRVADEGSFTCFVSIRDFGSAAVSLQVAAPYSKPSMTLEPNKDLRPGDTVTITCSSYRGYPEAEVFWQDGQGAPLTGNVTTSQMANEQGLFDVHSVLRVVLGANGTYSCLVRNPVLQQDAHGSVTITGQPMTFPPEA

B1: 91H06-MMAE (other)
VH: EVQLVESGGGLVQPGGSLRLSCAASGFTFSDYGMGWVRQAPGKGLEWVSSISWDSSSKEYADSVKGRFTISRDNSKNTLYLQMNSLRAEDTAVYYCARAWIAIIGGGAHFDYWGQGTLVTVSS
VL: DIQMTQSPSSLSASVGDRVTITCRASQSVSSHLAWYQQKPGKAPKLLIYLTSSLQSGVPSRFSGSGSGTDFTLTISSLQPEDFATYYCMQSKSLPFTFGQGTKVEIKR
modifications: MMAE linked through a PEG linker and a protease-sensitive valine-citrulline or glutamate-valine-citrulline linker to the azide-modified antibody (mAb-4 Azide, tri-mannosyl ADC platform); DAR between 3.5 and 3.9; attachment residue not stated
notes: also called the present ADC
B1 was tested, and the “Cytotoxicity activity (IC50, nM), CAL 27 cells” value [1] was less than 50 nM, the “Cytotoxicity activity (IC50, nM), Detroit 562 cells” value [1] was less than 50 nM and the “Cytotoxicity activity (IC50, nM), FaDu cells” value [1] was less than 50 nM. For the same binder, the “Cytotoxicity activity (IC50, nM), LNCaP cells” value [1] was less than 50 nM, the Kd [2] was 240 pM and the koff [2] was 0.000155 s⁻¹. The kon [2] was 643000 M⁻¹ s⁻¹.

B2: 91H06-MMAF (other)
VH: B1 VH
VL: B1 VL
modifications: MMAF linked through a PEG linker and a protease-sensitive valine-citrulline or glutamate-valine-citrulline linker to the azide-modified antibody (mAb-4 Azide, tri-mannosyl ADC platform); DAR between 3.5 and 3.9; attachment residue not stated
For B2, the “Cytotoxicity activity (IC50, nM), CAL 27 cells” value [3] was less than 10 nM, the “Cytotoxicity activity (IC50, nM), Detroit 562 cells” value [3] was less than 10 nM and the “Cytotoxicity activity (IC50, nM), FaDu cells” value [3] was less than 10 nM. The “Cytotoxicity activity (IC50, nM), LNCaP cells” value [3] was less than 10 nM.

B3: mAb 91H06 (antibody, V domains shown)
VH: B1 VH
VL: B1 VL
notes: Fully human, detected with anti-human IgG; also called antibody 91H06; anti-B7-H3 monoclonal antibody 91H06
With B3 the EC50 [4] was 60.1 pM, the EC50 [5] was 18.6 pM and the EC50 [6] was 76.7 pM. For the same binder, the Kd [7] was 227 pM, the kon [8] was 178000 M⁻¹ s⁻¹ and the Kd [9] was 2030 pM. B3: no binding (B7-H1); no binding (B7-H2); no binding (B7-H4). B3: no binding (B7-H6); no binding (B7-H7).

B4: Ifinatamab (antibody, V domains shown)
VH: QVQLVQSGAEVKKPGSSVKVSCKASGYTFTNYVMHWVRQAPGQGLEWMGYINPYNDDVKYNEKFKGRVTITADESTSTAYMELSSLRSEDTAVYYCARWGYYGSPLYYFDYWGQGTLVTVSS
VL: EIVLTQSPATLSLSPGERATLSCRASSRLIYMHWYQQKPGQAPRPLIYATSNLASGIPARFSGSGSGTDFTLTISSLEPEDFAVYYCQQWNSNPPTFGQGTKVEIK
B4 was tested, and the EC50 [5] was 35.6 pM and the EC50 [10] was 127 pM.
